Here are results for 3 proteins from paper PMC11629553, “Mechanistic diversity and functional roles define the substrate specificity and ligand binding of bacterial PGP phosphatases” (The Journal of Biological Chemistry, 2024).

Usually Km stands for the concentration of substrate that gives half-maximal velocity.

Where two headings read alike, the source gives them in different places.

Holding throughout (type): biochemical, Escherichia coli
Substrate in data set [1]: CCCCCCCC/C=C\CCCCCCCC(=O)OC[C@@H](O)COP(=O)(O)O
In words: phosphate release kinetics, surface dilution model (Km).

Substrate in data set [2]: O=P(O)(O)OCC(O)CO
In words: phosphate release kinetics, Michaelis-Menten (Km). The following applies: Mg2+.

Substrate in data set [3]: O=CC(O)COP(=O)(O)O
In words: phosphate release kinetics, Michaelis-Menten (Km). The following applies: Mg2+.

B1: PgpA (Escherichia coli K-12) (protein)
chain: MTILPRHKDVAKSRLKMSNPWHLLAVGFGSGLSPIVPGTMGSLAAIPFWYLMTFLPWQLYSLVVMLGICIGVYLCHQTAKDMGVHDHGSIVWDEFIGMWITLMALPTNDWQWVAAGFVIFRILDMWKPWPIRWFDRNVHGGMGIMIDDIVAGVISAGILYFIGHHWPLGILS
notes: N-terminal His-tagged PgpA purified in DDM
Turning to B1, the Km in data set [1] (Mg2+) was 83.8 µM; in data set [2] it was 327 µM; in data set [3], 765 µM.

B2: PgpB (Escherichia coli K-12) (protein)
chain: RSIARRTAVGAALLLVMPVAVWISGWRWQPGEQSWLLKAAFWVTETVTQPWGVITHLILFGWFLWCLRFRIKAAFVLFAILAAAILVGQGVKSWIKDKVQEPRPFVIWLEKTHHIPVDEFYTLKRAERGNLVKEQLAEEKNIPQYLRSHWQKETGFAFPSGHTMFAASWALLAVGLLWPRRRTLTIAILLVWATGVMGSRLLLGMHWPRDLVVATLISWALVAVATWLAQRICGPLTPPAEENREIAQREQES
notes: N-terminal His-tagged PgpB purified in DDM
With B2, the Km in data set [1] was 179.6 µM.

B3: PgpC (Escherichia coli K-12) (protein)
chain: MATHERRVVFFDLDGTLHQQDMFGSFLRYLLRRQPLNALLVLPLLPIIAIALLIKGRAARWPMSLLLWGCTFGHSEARLQTLQADFVRWFRDNVTAFPLVQERLTTYLLSSDADIWLITGSPQPLVEAVYFDTPWLPRVNLIASQIQRGYGGWVLTMRCLGHEKVAQLERKIGTPLRLYSGYSDSNQDNPLLYFCQHRWRVTPRGELQQLE
notes: N-terminal His-tagged PgpC purified in DDM
For B3, the Km in data set [1] (Mg2+) was determined as 190.2 µM.
